US7160981B2, “Peptide antagonists of DP transcription factors” (Prolifix Limited, priority 1996, dated 2007)
Entries after “also recorded” stand apart in the source; their conditions may differ.

What was measured:
DP-1/E2F-1 heterodimer = biological target: T1, DP-1/E2F-1 heterodimer (Homo sapiens, UniProt Q01094); experiment: binding assay: GST-E2F-1 fusion protein bound to in vitro translated DP-1, peptide competition; settings: peptide included in binding reaction
T1 construct: GST (N); made in house; DP-1 made by in vitro translation
T1 sequence (Q01094 whole entry, the tested form may be a part, one chain of several): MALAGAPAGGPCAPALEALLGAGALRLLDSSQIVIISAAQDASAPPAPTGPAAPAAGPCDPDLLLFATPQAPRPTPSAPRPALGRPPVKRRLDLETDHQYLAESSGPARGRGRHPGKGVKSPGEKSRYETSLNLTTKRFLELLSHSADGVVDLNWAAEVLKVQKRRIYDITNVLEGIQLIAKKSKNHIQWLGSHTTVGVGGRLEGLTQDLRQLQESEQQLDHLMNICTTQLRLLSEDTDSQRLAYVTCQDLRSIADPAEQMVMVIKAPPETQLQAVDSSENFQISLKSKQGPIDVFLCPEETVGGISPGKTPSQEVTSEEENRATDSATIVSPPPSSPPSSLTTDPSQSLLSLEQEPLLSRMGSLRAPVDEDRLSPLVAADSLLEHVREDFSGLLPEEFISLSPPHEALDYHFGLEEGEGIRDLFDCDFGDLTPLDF
Description: To determine the influence of the DEF box region upon the formation of the DP-1/E2F heterodimer, we used a binding assay in which E2F-1, expressed as a GST-E2F-1 fusion protein, bound to in vitro translated DP-1, an assay used previously to measure dimerization between DP and E2F proteins (31,32). Peptides were included in the binding reaction and their ability to compete with wild-type DP-1 for E2F-1 assessed by the amount of DP-1 which remained bound to the E2F-1 fusion protein.
GST-E2F-1, E2F-2, E2F-3 and pRb have been described previously (27,31,32) and were purified to homogeneity using glutathione Sepharose. In vitro translated DP-1, DP-1^172/173, E2F-1 and E1a were translated as described previously (27,31,32).
(§1) Gel retardation was performed using 5 to 10 μg of either F9 EC or JM cell extract with either an E2F or ATF site as previously described (15). Where fusion proteins were used, about 25 ng of either DP-1 or E2F-1 were used in each binding assay. For in vitro translates, about 6 μl of the translation mix was used in each binding assay. Gel retardation with an E2F binding site taken from the adenovirus E2a promoter was as previously described (15).

[1] = biological target: T2, E2F DNA binding activity of DP-1/E2F-1 heterodimer (Homo sapiens, UniProt Q01094); experiment: DP-1/E2F-1 DNA binding assay (gel retardation, bacterial fusion proteins); format: biochemical; settings: peptide titrated 1, 0.5, 0.1, 0.01 nmol
T2 construct: GST (N); made in house; host or cells: bacterial
T2 sequence (Q01094 whole entry, the tested form may be a part, one chain of several): as above
Description: Since the peptides function as antagonists of the formation of the DP/E2F heterodimer, we reasoned that they may also interfere with E2F DNA binding activity. To address this question, we determined whether the E2F DNA binding activity created in vitro from combining bacterial DP and E2F fusion proteins was affected by the peptides.
As previously shown, the interaction between DP-1 and E2F-1 leads to co-operative DNA binding activity. Peptide H (SEQ ID NO:1) was titrated into the DP-1/E2F-1 DNA binding assay, using 1 nmol, 0.5 nmol, 0.1 nmol and 0.01 nmol of peptide.
as §1

[2] = test system: physiological E2F DNA binding activity (DP-1/E2F heterodimer) in F9 embryonal carcinoma cell extracts; experiment: gel retardation, E2F site, F9 EC cell extracts; format: biochemical; settings: F9 EC cell extract; peptide up to 1 nmol
Description: Because the DEF box peptides can antagonise DNA binding activity of the DP-1/E2F heterodimer formed in vitro, we went on to establish their effects on physiological E2F. For this experiment, we used extracts prepared from F9 embryonal carcinoma (EC) cells, since these cells contain high levels of endogenous E2F DNA binding activity as a DP-1/E2F-heterodimer (26).
In a similar fashion to its effect upon the in vitro formed activity, the physiological DNA binding activity in F9 EC cell extracts was inactivated upon titration of peptide H (using the same concentrations mentioned above), but not by H1. This effect was specific for E2F since no effect on the unrelated DNA binding activity ATF was observed under similar conditions.
as §1

effect on binding of DP-1 to E2F-1 (formation of DP-1/E2F-1 heterodimer) (DP-1/E2F-1 heterodimer)	Substance	inhibition of DP-1/E2F-1 DNA binding activity [1]	inactivation of E2F DNA binding activity in F9 EC cell extracts [2]
failed to have any noticeable effect	Peptide 18: contains the N-terminal sequence taken from the DEF homology region (NESAYDQKNIRR) [reference compound]	did not interfere with DNA binding activity	–
failed to have any noticeable effect	17: DP-1 peptide taken from DCB1, C-terminal side of the DEF homology region (EVERQRRLERIKQKQ) [Peptide 17, reference compound]	did not interfere with DNA binding activity	–
failed to have any noticeable effect	15: DP-1 peptide taken from DCB1, C-terminal side of the DEF homology region (NLVQRNRQAEQQARR) [Peptide 15, reference compound]	did not interfere with DNA binding activity	–
retained antagonistic activity	RVYDALNVLMAMNIIS [Peptide H5, 16 residues within H2]	lower activity compared to H2 and H7	–

Continued, substance first:

Substance	effect on binding of DP-1 to E2F-1 (formation of DP-1/E2F-1 heterodimer) (DP-1/E2F-1 heterodimer)	inhibition of DP-1/E2F-1 DNA binding activity [1]	inactivation of E2F DNA binding activity in F9 EC cell extracts [2]
RARVYAALNVLMAMNIISK [Peptide H2mt2, mutant H2 peptide]	–	–	retained some activity, but less than wild-type H2
NVLMAMNIISKEKKEIKWIG [Peptide H3]	–	lower activity compared to H2 and H7	–
RRRAYDALNALMAMNIISK [Peptide H2mt1, mutant H2 peptide, V169 and V175 altered]	–	–	inactivated the E2F site DNA binding activity in F9 EC cell extracts with similar efficiency
H6: shorter DEF box peptide lacking activity (RRVYDALNVLMAMN) [Peptide H6]	lacked activity; also recorded: failed to affect formation of the DP-1/E2F-1 heterodimer	did not interfere with DNA binding activity	–
H1: peptide derived from the DEF box region which failed to affect heterodimer formation (RRRVYDALNVL) [Peptide H1]	failed to affect formation of the DP-1/E2F-1 heterodimer	did not interfere with DNA binding activity	not
